{
  "source": "paper doi:10.1101/2023.05.22.541748",
  "about": "(bioRxiv, 2023)",
  "molecular_target": "ubiquitin (wild type, Q40Ub) (UniProt P0CG48 1-76)",
  "assay": "NMR chemical shift perturbations of the conjugate against the free proteins",
  "data": [
    {"binder": "Ubc13 C87K/K92T/K94Q (enzyme) MAGLPRRIIKETQRLLAEPVPGIKAEPDESNARYFHVVIAGPQDSPFEGGTFKLELFLPEEYPMAAPKVRFMTKIYHPNVDKLGRIKLDILTDQWSPALQIRTVLLSIQALLSAPNPDDPLANDVAEQWKTNEAQAIETARAWTRLYAMNNI", "values": [
      {"measurement": "binding result", "result": "binds"}
    ]}
  ]
}
